The target of assay [1] is T1, RVS167 SH3 domain (Saccharomyces cerevisiae).
T1 chain: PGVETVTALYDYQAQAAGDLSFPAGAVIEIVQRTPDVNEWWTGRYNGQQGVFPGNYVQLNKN
Put plainly: SPR. The conditions noted are these: modification not given.

For assay [2], the target named is T2, GST-Abp1 SH3 domain (S. cerevisiae), P15891.
T2 chain: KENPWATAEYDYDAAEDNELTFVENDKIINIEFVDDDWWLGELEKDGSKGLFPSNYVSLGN
Put plainly: SPR. The conditions noted are these: modification not given.

The target of assay [3] is T3, YSC84 SH3 domain (Saccharomyces cerevisiae).
T3 chain: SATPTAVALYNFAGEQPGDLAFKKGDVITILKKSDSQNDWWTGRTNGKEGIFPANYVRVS
Put plainly: SPR. As to conditions: modification not given.

The target of assay [4] is T4, BOI2 SH3 domain (Saccharomyces cerevisiae).
T4 chain: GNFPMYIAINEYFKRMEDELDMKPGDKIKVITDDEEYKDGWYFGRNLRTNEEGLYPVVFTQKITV
Put plainly: SPR. As to conditions: modification not given.

Assay [5] deals with T5, YFR024C SH3 domain (Saccharomyces cerevisiae).
T5 chain: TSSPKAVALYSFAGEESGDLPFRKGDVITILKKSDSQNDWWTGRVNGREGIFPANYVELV
Put plainly: SPR. The conditions noted are these: modification not given.

Assay [6] deals with Sho1 SH3 (SHO1_YEAST), P40073. Put plainly: SPOT array.
The target in assay [7] is T6, Yhr016c SH3 (YSC84_YEAST), P32793.
T6 chain: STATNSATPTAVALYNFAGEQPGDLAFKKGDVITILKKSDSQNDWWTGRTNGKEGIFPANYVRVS
Put plainly: SPOT array.

Assay [8] has as its target T7, Myo5 SH3 (MYO5_YEAST), Q04439.
T7 chain: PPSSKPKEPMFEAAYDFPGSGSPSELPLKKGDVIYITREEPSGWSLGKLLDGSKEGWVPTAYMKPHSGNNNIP
Put plainly: SPOT array.

In assay [9] the target is T8, Boi2 SH3 (BOI2_YEAST), P39969.
T8 chain: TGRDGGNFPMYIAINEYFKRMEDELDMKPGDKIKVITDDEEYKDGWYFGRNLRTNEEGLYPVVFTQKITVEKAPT
Put plainly: SPOT array.

Assay [10] has as its target T9, Abp1 SH3 (ABP1_YEAST), P15891.
T9 chain: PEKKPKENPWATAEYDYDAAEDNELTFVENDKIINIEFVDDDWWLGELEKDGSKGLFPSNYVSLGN
Put plainly: SPOT array.

Assay [11] addresses T10, Boi1 SH3 (BOI1_YEAST), P38041.
T10 chain: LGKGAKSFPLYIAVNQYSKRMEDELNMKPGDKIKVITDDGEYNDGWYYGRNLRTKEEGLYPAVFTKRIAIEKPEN
Put plainly: SPOT array.

Assay [12] has as its target T11, Yfr024 SH3 (LSB3_YEAST), P43603.
T11 chain: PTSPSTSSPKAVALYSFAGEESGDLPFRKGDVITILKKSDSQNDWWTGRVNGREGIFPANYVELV
Put plainly: SPOT array.

Assay [13] deals with T12, Rvs167 SH3 (RV167_YEAST), P39743.
T12 chain: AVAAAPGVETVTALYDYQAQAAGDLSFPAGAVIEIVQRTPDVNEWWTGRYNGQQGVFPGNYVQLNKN
Put plainly: SPOT array.

Sho1 SH3 (SHO1_YEAST), P40073, sequence (P40073 295-366): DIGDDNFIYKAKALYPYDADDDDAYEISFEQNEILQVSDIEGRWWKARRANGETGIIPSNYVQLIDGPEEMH

Broadly, the Kd is a measure of binding affinity in units of concentration. Higher therefore signals lower affinity. Take NQPDLPPRKIMIP [YBR239C peptide …]: the Kd was 39 µM in [1]; more than 100 µM in assay [2]; 16 µM in assay [3]; more than 100 µM in [4]; 22 µM in assay [5].
Consider LQESKTVPQSPKKP [YOR058C 189-202], for which the normalised SPOT signal, Boehringer light units (BLU); mean over the file's lines of this peptide in [6] was determined as 37.8; in [7] it was 9.2; in [8], 159; in assay [9], 15.3; in assay [10], 224; in assay [11], 22.8. For the same molecule, the values for the normalised SPOT signal, Boehringer light units (BLU); mean over the file's lines of this peptide in assay [12] and in assay [13] were 19.6 and 50.4, respectively.
For the molecule RPLPQLPNRNNRPV, the Kd in assay [2] was more than 100 µM; in assay [3] it was 9.6 µM; in assay [4], more than 100 µM; in assay [5], 8.9 µM.
In [2], ASTKPEKPPVVKKP [INP52 peptide …] came in with a Kd of more than 100 µM.
Take RGPPPLPPRANVQP: in assay [4], the Kd was more than 100 µM.
On to DIKTRSVPKIPSIE [DEM1 peptide …], for which the Kd in assay [1], in [3], in [4] and in assay [5] was more than 100 µM each time.
For the molecule PQQNRPLPQLPNRN, the Kd is 32 µM in assay [1] and more than 100 µM in [4].
With GTTNRGPPPLPPRA, the Kd in assay [4] was more than 100 µM.
On the same count and under the same terms, for NAPERAVPILPPRN the value was more than 100 µM.
For the molecule RAVPILPPRNNVEP, the Kd in assay [1] is 39 µM; in [3], 13 µM; in [4], more than 100 µM.

The values above are taken from PMC314469, “Protein Interaction Networks by Proteome Peptide Scanning” (PLoS Biology, 2004).
